Assays:
Fes = Fes (UniProt P07332); assay: phosphorylation enrichment, bacterial display (enrichment ratio); higher = better substrate or ligand; peptides without Tyr show the background
c-Abl (mouse) = assay: as above
Jak2 = Jak2 (UniProt O60674); assay: as above
Fer (mouse) = assay: as above
MERTK = MERTK (UniProt Q12866); assay: as above
Fyn = Fyn (UniProt P06241); assay: as above
FGFR1 = FGFR1 (UniProt P11362); assay: as above
AncSZ = assay: as above
c-Src = assay: as above
FGFR3 = FGFR3 (UniProt P22607); assay: as above
EPHB2 = EPHB2 (UniProt P29323); assay: as above
Hck = Hck (UniProt P08631); assay: as above
EPHB1 = EPHB1 (UniProt P54762); assay: as above
SHP2-C SH2 = assay: SH2 binding enrichment of the phosphorylated peptide, bacterial display (enrichment ratio); higher = better substrate or ligand; peptides without Tyr show the background
c-Src SH2 = assay: as above
Grb2 SH2 = Grb2 SH2 (UniProt P62993); assay: as above
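Throughout, for SH2 binding enrichment of the phosphorylated peptide, bacterial display: peptide library displayed on the E. coli surface as eCPX fusions, selected cells deep-sequenced, score is each peptide's frequency after selection divided by its frequency in the input.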
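Throughout, for phosphorylation enrichment, bacterial display: 11-residue human phosphosite peptides and single-mutation variants displayed on the E. coli surface, counted by deep sequencing, each peptide's frequency after selection divided by its frequency in the unselected input library; frequency after pTyr selection over input frequency; kinase dosed for 20-30% of maximal phosphorylation in three min.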

Chain of MERTK (Q12866 whole entry, looked up): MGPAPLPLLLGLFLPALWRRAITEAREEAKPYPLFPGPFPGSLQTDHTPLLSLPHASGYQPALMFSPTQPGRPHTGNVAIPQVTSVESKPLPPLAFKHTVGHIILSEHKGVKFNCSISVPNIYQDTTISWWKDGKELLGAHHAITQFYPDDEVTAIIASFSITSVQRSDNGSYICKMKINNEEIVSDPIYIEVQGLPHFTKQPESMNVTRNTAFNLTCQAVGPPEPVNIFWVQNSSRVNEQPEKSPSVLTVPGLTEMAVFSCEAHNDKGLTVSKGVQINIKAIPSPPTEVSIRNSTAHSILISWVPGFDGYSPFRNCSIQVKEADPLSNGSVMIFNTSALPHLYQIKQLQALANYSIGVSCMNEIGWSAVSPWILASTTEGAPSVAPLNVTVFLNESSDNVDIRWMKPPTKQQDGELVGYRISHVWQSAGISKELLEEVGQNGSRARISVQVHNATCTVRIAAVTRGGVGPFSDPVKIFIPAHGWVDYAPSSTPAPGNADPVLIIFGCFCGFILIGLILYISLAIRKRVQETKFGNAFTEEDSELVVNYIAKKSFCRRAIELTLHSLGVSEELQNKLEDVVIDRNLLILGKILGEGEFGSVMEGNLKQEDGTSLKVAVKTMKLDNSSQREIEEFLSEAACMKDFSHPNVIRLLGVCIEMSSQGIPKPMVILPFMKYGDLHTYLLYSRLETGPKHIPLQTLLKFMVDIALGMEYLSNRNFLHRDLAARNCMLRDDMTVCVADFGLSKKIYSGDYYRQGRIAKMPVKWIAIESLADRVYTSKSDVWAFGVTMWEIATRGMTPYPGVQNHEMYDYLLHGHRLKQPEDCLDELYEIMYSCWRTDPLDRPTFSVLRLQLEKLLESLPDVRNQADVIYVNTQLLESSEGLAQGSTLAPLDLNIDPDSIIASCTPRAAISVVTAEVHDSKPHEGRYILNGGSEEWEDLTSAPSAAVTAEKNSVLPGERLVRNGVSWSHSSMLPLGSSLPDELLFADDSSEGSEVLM
Chain of FGFR1 (P11362 whole entry, looked up): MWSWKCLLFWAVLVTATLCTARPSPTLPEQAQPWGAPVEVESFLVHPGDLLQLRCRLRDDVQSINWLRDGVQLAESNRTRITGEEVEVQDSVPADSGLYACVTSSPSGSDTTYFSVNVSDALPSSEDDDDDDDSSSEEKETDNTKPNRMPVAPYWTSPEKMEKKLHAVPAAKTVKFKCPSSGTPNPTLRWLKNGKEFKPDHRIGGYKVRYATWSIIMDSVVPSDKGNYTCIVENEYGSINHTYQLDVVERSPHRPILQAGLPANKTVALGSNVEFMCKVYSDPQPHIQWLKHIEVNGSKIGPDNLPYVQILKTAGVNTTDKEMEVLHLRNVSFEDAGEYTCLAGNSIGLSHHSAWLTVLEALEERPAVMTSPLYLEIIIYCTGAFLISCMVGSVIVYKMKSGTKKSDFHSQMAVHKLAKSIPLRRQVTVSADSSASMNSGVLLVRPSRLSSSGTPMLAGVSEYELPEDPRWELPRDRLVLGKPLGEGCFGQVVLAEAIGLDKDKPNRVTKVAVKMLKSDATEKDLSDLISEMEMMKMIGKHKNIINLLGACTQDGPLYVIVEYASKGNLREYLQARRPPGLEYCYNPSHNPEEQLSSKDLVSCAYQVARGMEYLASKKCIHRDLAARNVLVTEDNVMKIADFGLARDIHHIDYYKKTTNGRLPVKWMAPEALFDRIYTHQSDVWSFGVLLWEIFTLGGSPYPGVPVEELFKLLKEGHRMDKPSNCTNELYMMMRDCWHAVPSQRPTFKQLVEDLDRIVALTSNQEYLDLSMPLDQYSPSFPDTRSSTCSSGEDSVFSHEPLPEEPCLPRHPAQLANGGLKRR
Chain of Fes (P07332 whole entry, looked up): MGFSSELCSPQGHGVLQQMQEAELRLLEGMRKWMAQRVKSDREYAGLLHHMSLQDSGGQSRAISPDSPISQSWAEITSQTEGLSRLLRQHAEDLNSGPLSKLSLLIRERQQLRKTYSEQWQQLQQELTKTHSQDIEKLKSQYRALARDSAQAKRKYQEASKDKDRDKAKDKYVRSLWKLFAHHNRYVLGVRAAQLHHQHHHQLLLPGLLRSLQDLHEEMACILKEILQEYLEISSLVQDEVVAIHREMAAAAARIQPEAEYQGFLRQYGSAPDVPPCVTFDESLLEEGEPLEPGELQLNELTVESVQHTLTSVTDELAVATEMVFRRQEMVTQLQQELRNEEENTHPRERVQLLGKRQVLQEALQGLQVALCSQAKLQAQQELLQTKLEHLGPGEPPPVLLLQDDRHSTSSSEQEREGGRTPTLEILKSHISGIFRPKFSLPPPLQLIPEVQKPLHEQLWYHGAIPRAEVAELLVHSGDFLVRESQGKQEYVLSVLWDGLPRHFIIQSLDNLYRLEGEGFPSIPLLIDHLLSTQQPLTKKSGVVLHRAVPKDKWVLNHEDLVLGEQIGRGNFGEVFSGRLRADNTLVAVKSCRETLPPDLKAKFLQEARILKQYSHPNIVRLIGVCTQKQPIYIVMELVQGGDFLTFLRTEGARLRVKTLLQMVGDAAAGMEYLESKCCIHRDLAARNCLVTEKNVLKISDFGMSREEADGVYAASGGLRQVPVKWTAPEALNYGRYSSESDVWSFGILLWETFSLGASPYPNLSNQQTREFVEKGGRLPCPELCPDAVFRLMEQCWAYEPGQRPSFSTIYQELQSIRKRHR
Chain of Fyn (P06241 whole entry, looked up): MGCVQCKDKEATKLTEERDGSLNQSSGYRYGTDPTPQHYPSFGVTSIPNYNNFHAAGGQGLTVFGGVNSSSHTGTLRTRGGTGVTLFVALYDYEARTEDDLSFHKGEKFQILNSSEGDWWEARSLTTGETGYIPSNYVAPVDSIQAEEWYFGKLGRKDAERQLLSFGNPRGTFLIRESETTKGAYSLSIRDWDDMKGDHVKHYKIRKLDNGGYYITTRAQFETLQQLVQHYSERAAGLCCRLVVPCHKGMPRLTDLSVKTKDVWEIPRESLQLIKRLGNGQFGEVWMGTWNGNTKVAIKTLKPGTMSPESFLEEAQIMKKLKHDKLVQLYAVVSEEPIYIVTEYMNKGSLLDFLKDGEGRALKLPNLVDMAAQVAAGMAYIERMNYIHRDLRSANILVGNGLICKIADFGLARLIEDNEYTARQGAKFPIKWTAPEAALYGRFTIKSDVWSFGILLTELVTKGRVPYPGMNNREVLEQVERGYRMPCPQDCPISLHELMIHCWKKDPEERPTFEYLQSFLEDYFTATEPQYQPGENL
Chain of EPHB2 (P29323 whole entry, looked up): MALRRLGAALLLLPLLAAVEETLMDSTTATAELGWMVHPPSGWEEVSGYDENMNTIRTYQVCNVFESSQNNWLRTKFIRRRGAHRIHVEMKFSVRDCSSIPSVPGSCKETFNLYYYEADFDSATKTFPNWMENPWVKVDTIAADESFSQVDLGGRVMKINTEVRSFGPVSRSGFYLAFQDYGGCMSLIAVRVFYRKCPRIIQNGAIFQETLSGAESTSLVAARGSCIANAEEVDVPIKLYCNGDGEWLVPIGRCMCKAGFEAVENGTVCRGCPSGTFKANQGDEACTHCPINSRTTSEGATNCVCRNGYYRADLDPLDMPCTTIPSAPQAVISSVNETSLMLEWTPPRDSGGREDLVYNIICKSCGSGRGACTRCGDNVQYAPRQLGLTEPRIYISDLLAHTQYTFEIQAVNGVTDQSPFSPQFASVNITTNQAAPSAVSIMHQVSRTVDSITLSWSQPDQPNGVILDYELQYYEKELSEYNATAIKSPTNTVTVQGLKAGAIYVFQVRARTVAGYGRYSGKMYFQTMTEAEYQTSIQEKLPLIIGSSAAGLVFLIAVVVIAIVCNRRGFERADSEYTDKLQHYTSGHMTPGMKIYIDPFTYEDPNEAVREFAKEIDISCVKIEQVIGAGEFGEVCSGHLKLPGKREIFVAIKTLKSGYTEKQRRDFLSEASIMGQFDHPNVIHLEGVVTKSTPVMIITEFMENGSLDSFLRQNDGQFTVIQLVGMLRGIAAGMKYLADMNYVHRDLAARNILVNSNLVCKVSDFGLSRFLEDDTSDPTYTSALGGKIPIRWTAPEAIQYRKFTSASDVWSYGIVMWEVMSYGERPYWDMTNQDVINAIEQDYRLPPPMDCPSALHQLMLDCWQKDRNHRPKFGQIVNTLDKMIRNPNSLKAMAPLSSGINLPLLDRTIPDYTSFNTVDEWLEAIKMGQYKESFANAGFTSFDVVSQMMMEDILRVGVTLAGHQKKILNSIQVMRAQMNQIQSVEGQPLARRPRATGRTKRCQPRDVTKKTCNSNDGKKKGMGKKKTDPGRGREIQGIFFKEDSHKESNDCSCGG
Chain of Hck (P08631 whole entry, looked up): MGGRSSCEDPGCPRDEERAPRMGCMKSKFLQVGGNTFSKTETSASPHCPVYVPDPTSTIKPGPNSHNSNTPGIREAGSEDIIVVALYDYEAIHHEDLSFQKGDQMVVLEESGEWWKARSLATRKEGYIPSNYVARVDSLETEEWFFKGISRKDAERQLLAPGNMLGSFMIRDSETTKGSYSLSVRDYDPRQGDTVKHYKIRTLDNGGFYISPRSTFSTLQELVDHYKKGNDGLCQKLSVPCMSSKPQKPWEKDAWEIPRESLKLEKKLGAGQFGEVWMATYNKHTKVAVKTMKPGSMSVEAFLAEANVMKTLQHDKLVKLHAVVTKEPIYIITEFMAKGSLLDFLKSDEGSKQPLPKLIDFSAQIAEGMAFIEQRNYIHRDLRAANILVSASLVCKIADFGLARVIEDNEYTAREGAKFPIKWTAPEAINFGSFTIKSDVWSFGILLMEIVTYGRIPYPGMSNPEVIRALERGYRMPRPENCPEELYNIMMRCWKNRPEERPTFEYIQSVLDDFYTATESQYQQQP

Row | Sequence | SH2 binding enrichment (SHP2-C SH2) | SH2 binding enrichment (c-Src SH2) | SH2 binding enrichment (Grb2 SH2) | phosphorylation enrichment (Fes) | phosphorylation enrichment (c-Abl (mouse)) | phosphorylation enrichment (Jak2) | phosphorylation enrichment (Fer (mouse)) | phosphorylation enrichment (MERTK) | phosphorylation enrichment (Fyn) | phosphorylation enrichment (FGFR1) | phosphorylation enrichment (AncSZ) | phosphorylation enrichment (c-Src) | phosphorylation enrichment (FGFR3) | phosphorylation enrichment (EPHB2) | phosphorylation enrichment (Hck) | phosphorylation enrichment (EPHB1)
1 | RFMELYDLNRD [BBS2_Y648_YF] | 1.06 | 0.563 | 1.02 | 1.28 | 0.556 | 0.909 | 0.703 | 0.459 | 1.25 | 0.762 | 1.28 | 2.04 | 0.883 | 0.812 | 1.14 | 0.61
2 | LNPLIYTLKNA [OR4C46_Y285] | 0.891 | 0.42 | 0.642 | 1.08 | 0.474 | 0.343 | 0.545 | 0.463 | 2.17 | 0.73 | 0.602 | 3.03 | 0.886 | 0.603 | 2.31 | 0.762
3 | GGKFSYLKVGH [GRM3_Y480_YF] | 0.525 | 0.401 | 0.901 | 0.619 | 0.494 | 0.642 | 0.344 | 0.463 | 0.361 | 0.512 | 0.634 | 0.411 | 0.519 | 0.368 | 0.371 | 0.409
4 | TYGVVYKARNK [CDK2_Y19] | 0.253 | 0.548 | 0.788 | 0.691 | 0.272 | 0.485 | 0.46 | 0.41 | 1.81 | 0.354 | 1.18 | 1.33 | 0.515 | 0.563 | 1.47 | 0.369
5 | IINENYDFLKV [NUP98_Y1664_G1669V_YF] | 0.958 | 0.588 | 0.588 | 1.01 | 0.668 | 0.97 | 2.45 | 0.838 | 0.512 | 0.862 | 1.05 | 0.655 | 0.779 | 0.92 | 2.17 | 0.794
6 | KAWTIYRPEDS [ZBP1_Y165] | 0.719 | 0.488 | 0.746 | 1.15 | 0.757 | 1.17 | 0.449 | 0.478 | 0.494 | 0.539 | 1.41 | 0.566 | 0.643 | 0.512 | 0.482 | 0.461
7 | VDASYCGGRGV [ANTXR2_Y381_Y381C] | 0.331 | 0.382 | 0.62 | 0.63 | 0.519 | 0.573 | 0.48 | 0.559 | 0.676 | 0.405 | 0.712 | 0.476 | 0.463 | 0.28 | 0.342 | 0.373
8 | NVDGKYSFLKV [GRM3_Y478_G475D_YF] | 0.944 | 0.826 | 1.06 | 0.824 | 0.534 | 0.719 | 0.48 | 0.508 | 0.383 | 0.426 | 0.624 | 0.439 | 0.505 | 0.356 | 0.431 | 0.394
9 | EWQQTYTYDSG [JUP_Y20] | 0.775 | 1.01 | 0.813 | 1.02 | 0.657 | 0.898 | 0.513 | 0.817 | 1.28 | 1.17 | 1.12 | 3.88 | 0.99 | 0.585 | 0.783 | 0.554
10 | TGILLHGLASR [QARS1_Y57_Y57H] | 0.801 | 0.593 | 0.783 | 0.629 | 0.528 | 0.488 | 0.218 | 0.419 | 0.281 | 0.367 | 0.417 | 0.469 | 0.379 | 0.328 | 0.301 | 0.28
11 | SVTCTNSPALN [TP53_Y126_Y126N] | 0.65 | 0.385 | 0.659 | 1.24 | 0.762 | 1.08 | 0.588 | 0.487 | 0.495 | 0.491 | 0.907 | 0.504 | 0.699 | 0.483 | 0.447 | 0.586
12 | ALVDTYCRHNF [HLA-DRB1_Y107_A103L_YF] | 0.845 | 0.711 | 0.991 | 0.935 | 0.683 | 0.847 | 0.588 | 0.549 | 0.454 | 0.472 | 0.782 | 0.538 | 0.682 | 0.613 | 0.577 | 0.55
13 | SEKISYVFMKR [SSX7_Y48_L43S_YF] | 0.906 | 0.386 | 0.681 | 1.32 | 0.822 | 1.05 | 0.458 | 0.378 | 0.436 | 0.52 | 1.25 | 0.412 | 0.75 | 0.597 | 0.46 | 0.599
14 | RKKEEYKMAPY [F8_Y1990_L1994P] | 1.02 | 0.721 | 1.32 | 1.33 | 1.03 | 1.1 | 0.926 | 0.933 | 0.939 | 1.18 | 1.16 | 0.816 | 0.941 | 0.865 | 1.06 | 0.583
15 | PSSNLYYRCLT [CNGA3_Y168_W171C] | 0.629 | 0.484 | 0.936 | 1.06 | 0.742 | 2.31 | 0.655 | 3.88 | 0.883 | 1.9 | 1.68 | 1.05 | 1.87 | 0.78 | 1.89 | 1.23
16 | DQNVEYKGTVW [FHL1_Y117] | 0.577 | 0.424 | 0.866 | 1.17 | 0.843 | 0.938 | 0.425 | 0.496 | 0.496 | 0.455 | 0.95 | 0.488 | 0.755 | 0.545 | 0.466 | 0.558
17 | RNNIEYVRDIG [MUSK_Y577] | 0.725 | 0.634 | 1.21 | 0.693 | 0.602 | 0.436 | 0.426 | 0.3 | 0.369 | 0.413 | 0.676 | 0.416 | 0.58 | 0.404 | 0.395 | 0.437
18 | NRLTDYYELLL [BBS10_Y536_P539L] | 0.83 | 1.16 | 1.19 | 1.17 | 1.15 | 1.68 | 1.98 | 3.04 | 1.1 | 11.9 | 1.64 | 1.69 | 10.1 | 1.66 | 1.46 | 2.44
19 | SVTCTYSPALN [TP53_Y126] | 0.616 | 0.401 | 0.766 | 1.72 | 0.976 | 1.45 | 0.626 | 0.456 | 0.489 | 0.517 | 1.53 | 0.66 | 0.984 | 0.723 | 0.641 | 0.794
20 | FFSSEYHFVGG [CTSC_Y345_YF] | 1.68 | 0.756 | 0.99 | 0.91 | 1.71 | 1.95 | 0.526 | 3.31 | 2 | 14.2 | 2.52 | 2.94 | 10.7 | 3.73 | 2.44 | 3.21

The next lines start with results.

Row | SH2 binding enrichment (SHP2-C SH2) | SH2 binding enrichment (c-Src SH2) | SH2 binding enrichment (Grb2 SH2) | Sequence | phosphorylation enrichment (Fes) | phosphorylation enrichment (c-Abl (mouse)) | phosphorylation enrichment (Jak2) | phosphorylation enrichment (Fer (mouse)) | phosphorylation enrichment (MERTK) | phosphorylation enrichment (Fyn) | phosphorylation enrichment (FGFR1) | phosphorylation enrichment (AncSZ) | phosphorylation enrichment (c-Src) | phosphorylation enrichment (FGFR3) | phosphorylation enrichment (EPHB2) | phosphorylation enrichment (Hck) | phosphorylation enrichment (EPHB1)
21 | 0.646 | 0.975 | 0.541 | LDFPEYNGVDR [CASQ1_Y43_D44N] | 3.29 | 1.95 | 3.51 | 1 | 2.17 | 1.43 | 0.986 | 2.84 | 2.17 | 1.61 | 1.04 | 1.16 | 1.09
22 | 0.55 | 0.519 | 0.693 | VDGFVYKLHPS [GCK_Y413_S411F] | 0.962 | 0.562 | 0.999 | 0.368 | 0.288 | 0.53 | 0.407 | 0.844 | 0.643 | 0.55 | 0.484 | 0.419 | 0.434
23 | 0.884 | 0.547 | 0.884 | TKDTFHKQPMF [GBA_Y451_Y451H] | 0.476 | 0.445 | 0.468 | 0.249 | 0.403 | 0.333 | 0.304 | 0.454 | 0.459 | 0.391 | 0.352 | 0.312 | 0.29
24 | 0.737 | 0.473 | 0.462 | TEYIQYMRRKN [MAX_Y73] | 0.615 | 0.546 | 0.718 | 0.523 | 0.545 | 0.468 | 0.7 | 0.734 | 0.491 | 0.609 | 0.528 | 0.7 | 0.404
25 | 0.596 | 0.624 | 0.971 | FVHDNYVIQRT [CPS1_Y1450_R1453Q] | 0.672 | 0.52 | 0.7 | 0.694 | 0.469 | 0.425 | 0.481 | 0.788 | 0.481 | 0.567 | 1.07 | 0.436 | 2.19
26 | 0.819 | 2.36 | 0.844 | KRLDGYVLEGW [IGSF9_Y656_R661W] | 0.835 | 0.532 | 0.651 | 0.506 | 0.381 | 0.484 | 0.542 | 0.712 | 0.418 | 0.511 | 0.484 | 0.453 | 0.48
27 | 0.531 | 0.482 | 0.769 | EPSLVYMVTKI [CPS1_Y768_D767V] | 1.16 | 0.89 | 1.04 | 1.7 | 0.454 | 0.808 | 0.543 | 1.16 | 1.45 | 0.741 | 0.534 | 1.26 | 0.575
28 | 1.64 | 1.75 | 1.56 | MFNPYYGLFEY [NEDD4L_Y680] | 2.16 | 5.87 | 7.13 | 7.76 | 7.1 | 7.66 | 8.53 | 2.18 | 5.76 | 7.3 | 9.35 | 7.23 | 7.89
29 | 1 | 1.05 | 0.887 | SLGSPYEQPPR [PDLIM4_Y137_G138E] | 0.757 | 0.747 | 0.673 | 0.474 | 0.581 | 0.495 | 0.46 | 0.909 | 0.547 | 0.565 | 0.493 | 0.619 | 0.487
30 | 0.593 | 0.539 | 0.762 | CHSDDYVHISL [TSC1_Y406] | 1.13 | 0.781 | 0.958 | 0.491 | 0.436 | 0.502 | 1.23 | 1.27 | 0.495 | 1.07 | 0.65 | 0.554 | 0.768
31 | 0.784 | 0.739 | 0.887 | LIFTNYEVGKD [GSTP1_Y112_A114V_YF] | 2.21 | 1.3 | 1.94 | 1.17 | 0.983 | 1.18 | 1.17 | 2.14 | 0.825 | 1.46 | 1.78 | 1.1 | 1.58
32 | 1.6 | 1.19 | 1.83 | LHRAHYDLRHT [AHSG_Y314] | 1.11 | 0.908 | 0.725 | 0.8 | 0.418 | 0.617 | 0.707 | 0.621 | 0.556 | 1.1 | 0.78 | 0.876 | 0.668
33 | 0.675 | 0.612 | 0.634 | TDLAFYLVREG [ASL_Y376_K380E_YF] | 1.59 | 0.85 | 1.24 | 0.555 | 0.501 | 0.437 | 0.574 | 1.28 | 0.519 | 1.01 | 0.703 | 0.546 | 0.709
